Laboratory results published in patent publication US20180216094A1 (University of California, published 2018).

Molecular target: T1, FXIS557A catalytic domain (catalytically inactive catalytic domain of human FXI, Ile370 to Ala606 of SEQ ID … (human))
T1 construct: The range 20-264 is worked out from 19 signal residues + 237 domain residues + 8 His; also called FXIS557A catalytic domain decoy; decoy
Experiment: SPR (Biacore T200), biotinylated FXIS557A catalytic domain captured on CAP chip, DEF Fab injected, 37 C, 1:1 Langmuir fit
Experimental: Binding affinity was measured using a Biacore T200 Instrument (GE Healthcare). Recombinant FXIS557A catalytic domain was biotin labeled via primary amines and captured on a Biacore CAP chip (GE Healthcare). Experiments were performed at 37° C. using a 30 μ/min flow rate in 10 mM HEPES (pH 7.4), 150 mM NaCI and 0.005% v/v Surfactant P20 (HBSp) buffer (GE Healthcare). After each DEF Fab injection, the chip surface was regenerated with a solution of 6 M guanidine-HCl and 0.25 M NaOH, coated with the CAP reagent and new FXIS557A was captured. All data was analyzed using the Biacore T200 Evaluation software and background and buffer subtracted data fit to a 1:1 Langmuir binding model. Results were reported as the mean of two experiments.

B1: DEF Fab (Fab, V domains shown)
VH: EVQLVQSGAEVKKPGASVKVSCKASGYTFTGYYMHWVRQAPGQGLEWMGWIDPDEGDTNYAQKFQGRVTMTRDTSISTAYMELSRLRSDDTAVYYCARLASGFRDYWGQGTLVTVSS
VL: DIVMTKSPSSLSASVGDRVTITCRASQGIRNDLGWYQQKPGKAPKRLIYAASSLQSGVPSRFSGSGSGTEFTLTISSLQPEDFATYYCLQHDIYASTFGPGTKVDIKR
notes: Fab form of antibody DEF
koff: 0.000445 s⁻¹ | kon: 2.95e+06 M⁻¹ s⁻¹
